In patent US20260275319A1, “ARCHAEAL PEPTIDE RECOMBINASE – A NOVEL PEPTIDE LIGATING ENZYME” (MAX-PLANCK-GESELLSCHAFT ZUR FÖRDERUNG DER WISSENSCHAFTEN …, priority 2019, published 2026):

How the values were obtained:
(15)KDPGA(0) = assay: microscale thermophoresis (MST); table row (15)KDPGA(0)
(15)KDPGA(5) = assay: microscale thermophoresis (MST); table row (15)KDPGA(5)

B1: M. jannaschii Adriase S1A mutant with C-terminal His-tag, Q57968 3-293 (enzyme)
chain: ALIICYYGKNGAVIGGDRRQIFFRGSEENRKILEEKLYSGEIKSEEELYKLAEKLNIKIIIEDDREKVRKISDSVVCGEVRSLGIDAKRRRVYATKGKCAIVDILNDTVTNQTIKEGFGIVVLGNRFLKKKAEEELKRTAKLFPMMPIQQIEDAIKEIFEKLKWHPTVSKEYDIYSVNKYEKNFEEVIKKDIESLFKYREQLRKQLIDFGKVMSIVNKIVKNGEIGVIKDGKLHLYDDYIAIDKIDPNPKVFKVVDVEGNFKDGDIVVIENGDMKIKGTNEKVTTKYIIIHKGSHHHHHH
- Kd ((15)KDPGA(0)): > 20 µM
- Kd ((15)KDPGA(5)): > 20 µM
